The source of these data is patent US5158935A, “Human epidermal growth factor having substitution at position 11” (Chiron Corporation, priority 1989, dated 1992).

For series [1] the following is noted: citrate buffer, pH 3, 45° C. How it is done: Solutions of rhEGF and rhEGF-Glu11 were prepared in citrate buffer, pH 3, and were maintained at 45° C. Aliquots were drawn on days 0, 1, 7, and 15, and were analyzed by RP-HPLC (as described in Example 2).
For series [2] the following is noted: forms isolated from recombinant yeast culture; cited from earlier work.
The conditions of series [3]: stored as a lyophilized powder; cited from earlier work.

Regarding `CC[C@H](C)[C@@H]1NC(=O)[C@H](Cc2ccc(O)cc2)NC(=O)CNC(=O)[C@H](C(C)C)NC(=O)[C@H](C(C)C)NC(=O)[C@@H](NC(=O)[C@H](CC(N)=O)NC(=O)[C@@H]2CSSC[C@@H]3NC(=O)[C@H](Cc4ccc(O)cc4)NC(=O)CNC(=O)[C@H](CC(=O)O)NC(=O)[C@H](Cc4c[nH]cn4)NC(=O)[C@H](CO)NC(=O)[C@H](CC(C)C)NC(=O)[C@@H]4CCCN4C(=O)[C@@H](NC(=O)[C@H](CCC(=O)O)NC(=O)[C@H](CO)NC(=O)[C@H](CC(=O)O)NC(=O)[C@H](CO)NC(=O)[C@@H](N)CC(N)=O)CSSC[C@H](NC(=O)[C@H](C(C)C)NC(=O)CNC(=O)[C@H](CC(=O)O)NC(=O)[C@H](Cc4c[nH]cn4)NC(=O)[C@H](CC(C)C)NC3=O)C(=O)N[C@@H](CCSC)C(=O)N[C@@H](Cc3ccc(O)cc3)C(=O)N[C@@H]([C@@H](C)CC)C(=O)N[C@@H](CCC(=O)O)C(=O)N[C@@H](C)C(=O)N[C@@H](CC(C)C)C(=O)N[C@@H](CC(=O)O)C(=O)N[C@@H](CCCCN)C(=O)N[C@@H](Cc3ccc(O)cc3)C(=O)N[C@@H](C)C(=O)N2)CSSC[C@@H](C(=O)N[C@@H](CCC(N)=O)C(=O)N[C@@H](Cc2ccc(O)cc2)C(=O)N[C@@H](CCCNC(=N)N)C(=O)N[C@@H](CC(=O)O)C(=O)N[C@@H](CC(C)C)C(=O)N[C@@H](CCCCN)C(=O)N[C@@H](Cc2c[nH]c3ccccc23)C(=O)N[C@@H](Cc2c[nH]c3ccccc23)C(=O)N[C@@H](CCC(=O)O)C(=O)N[C@@H](CC(C)C)C(=O)N[C@@H](CCCNC(=N)N)C(=O)O)NC(=O)[C@H](CCCNC(=N)N)NC(=O)[C@H](CCC(=O)O)NC(=O)CNC1=O` [EGF-Asp11], the “degradation products versus original protein by RP-HPLC” value in series [1] (by day 15) was “the degradation products outweighed the original rhEGF”. For the same molecule, in series [1] (days 0, 1, 7 and 15), the “degradation seen in RP-HPLC chromatograms” value is “rapidly degraded to rhEGF-isoaspartyl11”.

Consider “EGF-B: EGF-D wherein the C-terminal arg-leu has been removed (NSDSECPLSHDGYCLHDGVCMYIEALDKYACNCVVGYIGERCQYRDLKWWE; not fully specified; Epidermal growth factor; UniProt P01133 971-1021, looked up, fragment)”, for which the EGF activity result in series [2] is “full EGF activity”.

As for “EGF-D: 52-amino acid sequence obtained by removing the C-terminal arg of EGF (NSDSECPLSHDGYCLHDGVCMYIEALDKYACNCVVGYIGERCQYRDLKWWEL; not fully specified; Epidermal growth factor; UniProt P01133 971-1022, looked up, fragment)”, in series [3], the stability on storage entry is “stable”. Moreover, the EGF activity result in series [2] is recorded as “full EGF activity”.
